From US20160115201, “PEPTIDES BINDING TO PARALLEL-STRANDED G-QUADRUPLEXES” (NANYANG TECHNOLOGICAL UNIVERSITY, published 2016)

T1: Rhau55 (N-terminal fragment of RHAU/DHX36) (UniProt Q9H2U1 SEQ:3-55)
T1 sequence: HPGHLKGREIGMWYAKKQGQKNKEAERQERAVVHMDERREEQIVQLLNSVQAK

B1: T95_2T (structured_DNA)
DNA: TTGGGTGGGTGGGTGGGT
B2: Pu24T (structured_DNA)
DNA: TGAGGGTGGTGAGGGTGGGGA
B3: CEB25 (structured_DNA)
DNA: AAGGGTGGGTGTAAGTGTGGGTGGGT
B4: TERC18 (ssRNA)
RNA: GGGUUGCGGAGGGUGGGC
B5: 12-nt TER (ssRNA)
RNA: UAGGGUUAGGGU
B6: HT1 (structured_DNA)
DNA: TTGGGTTAGGGTTAGGGTTAGGGA
B7: 10-nt TER (ssRNA)
RNA: GGGUUAGGGU
B8: CEB1 (structured_DNA)
DNA: AGGGGGGAGGGAGGGTGG
B9: 93del (structured_DNA)
DNA: GGGGTGGGAGGAGGGT

Assays:
[1] = molecular target: T1, Rhau55 (N-terminal fragment of …); experiment: EMSA; 70 mM KCl, 20 mM phosphate pH 6.8, room temperature; settings: tags: expressed in E. coli; parallel (propeller) G4
[2] = molecular target: T1, Rhau55 (N-terminal fragment of …); experiment: EMSA; 70 mM KCl, 20 mM phosphate pH 6.8; settings: tags: expressed in E. coli
Method: (§1) The ratio between Rhau55 and Nucleic acids is indicated on top of each lane. DNA concentrations were fixed at 100 μM, in 70 mM KCL and 20 mM phosphate buffer (pH=6.8).

[3] = molecular target: T1, Rhau55 (N-terminal fragment of …); experiment: EMSA; RNA G4; 70 mM KCl, 20 mM phosphate pH 6.8; settings: tags: expressed in E. coli; parallel RNA G4
Method: as §1

[4] = molecular target: T1, Rhau55 (N-terminal fragment of …); experiment: NMR imino protons, mixture with T95_2T; only T95_2T peaks affected; settings: tags: expressed in E. coli; non-parallel G4 form 1

Row | Binder | binding result ([2]; parallel G4) | binding result [3] | also measured
1 | B1 |  |  | Kd [1]: 989 nM
2 | B2 | binds |  | 
3 | B3 | binds |  | 
4 | B4 |  | binds | 
5 | B5 |  | binds | 
6 | B6 |  |  | binding result [4]: no binding
7 | B7 |  | binds | 
8 | B8 | binds |  | 
9 | B9 |  |  | binding result ([2]; interlocked dimeric parallel G4): binds
